Measurements: paper PMC8748511 (Nature Communications, 2022)
Changes are numbered by the printed parent chain.

B1: H5 (VHH)
VHH: QVQLVESGGGLVQPGGSLRLSCAASGVTLDDYAIGWFRQAPGKEREGVSFITSSDGSTFYVDSVKGRFTIARDNAKNTVYLQMNALTPEDTAVYYCAVGPSFSSTGSTYYRSELPWDYDYWGQGTQVTVSS
B2: H8 (VHH)
VHH: B1 VHH with V27F, V48I, F59Y, A71S, A85D, S104Y
B3: H11 (VHH)
VHH: B1 VHH with V27L, F59Y, A71S, A85S, S104Y, E113T
B4: H6 (VHH)
VHH: B1 VHH with V27F, F59Y, A71S, A85S, S104Y, E113V
B5: H7 (VHH)
VHH: B1 VHH with V27F, F59Y, D62A, A71S, A85D, S104Y
B6: H9 (VHH)
VHH: B1 VHH with V27F, G35A, F59Y, A71S, A85D, S104Y
B7: H10 (VHH)
VHH: B1 VHH with V27F, F59Y, T69A, A71S, A85S, S104R, E113V

These binders were tested against SARS-CoV-2 spike receptor binding domain (RBD) (SARS-CoV-2, founder (Wuhan-Hu-1) …, UniProt P0DTC2, amine-PEG3-biotin attached with sortase A at the C-terminal sortase motif (for SPR)).

Row | Binder | binding result
1 | B1 | binds
2 | B2 | binds
3 | B3 | binds
4 | B4 | binds
5 | B5 | binds
6 | B6 | binds
7 | B7 | binds
